The values that follow come from patent publication US7968091 (GENERAL HOSPITAL, dated 2011).

This assay addresses T1, human BMP-2 ligand (carrier-free, R & D Systems), used 125I-labeled and as cold competitor (human, UniProt P12643 283-396, iodinated with [125I] by the modified chloramine-T method (labeled form)).
T1 construct: Bought recombinant ligand
Nature of the assay: DSS chemical crosslinking with 125I-BMP-2, Protein A pull-down, SDS-PAGE, autoradiography. On the procedure:
Ligand iodination and crosslinking. […] This mixture was incubated in the absence or presence of […] disuccinimidyl suberate (DSS, Sigma, St. Louis, Mo.) followed by incubated with Protein A Sepharose beads (Amersham) as previously described (J. L. Babitt et al., J. Biol. Chem., 2005, 280: 29820-29827). Beads were washed with phosphate buffered saline (PBS) and protein eluted by non-reducing Laemmli sample buffer (Bio-Rad). Eluted protein was separated by SDS-PAGE and analyzed by autoradiography.

T1 sequence (P12643 283-396 limits assumed): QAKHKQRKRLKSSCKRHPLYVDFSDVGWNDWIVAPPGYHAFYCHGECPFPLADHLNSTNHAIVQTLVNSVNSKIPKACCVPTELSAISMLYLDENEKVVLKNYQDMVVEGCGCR

B1: ALK5.Fc (a TGF-β type I receptor, R & D Systems) (Fc fusion, UniProt P36897 34-125, looked up)
chain: LQCFCHLCTKDNFTCVTDGLCFVSVTETTDKVIHNSMCIAEIDLIPRDRPFVCAPSSKTGSVTTTYCCNQDHCNKIELPTTVKSSPGLGPVE
notes: Bought fusion protein, negative control; not shown: Fc part of the bought fusion protein; not described
Turning to B1, the binding result is “no binding (tested: 60 ng ALK5.Fc)”.
